In paper PMC12480952 (Nature Communications, 2025):

Target: FITC-BIM BH3 (FITC at the N-terminus)
Test: fluorescence polarisation

Binder | EC90 [nM]
BCL-2ΔLΔC WT (domain or fragment, human) MAHAGRTGYDNREIVMKYIHYKLSQRGYEWDAGDDVEENRTEAPEGTESEVVHLTLRQAGDDFSRRYRRDFAEMSSQLHLTPFTARGRFATVVEELFRDGVNWGRIVAFFEFGGVMCVESVNREMSPLVDNIALWMTEYLNRHLHTWIQDNGGWDAFVELYGPSMRA | 8.6
BCL-2ΔLΔC A113G (domain or fragment, human) MAHAGRTGYDNREIVMKYIHYKLSQRGYEWDAGDDVEENRTEAPEGTESEVVHLTLRQAGDDFSRRYRRDFGEMSSQLHLTPFTARGRFATVVEELFRDGVNWGRIVAFFEFGGVMCVESVNREMSPLVDNIALWMTEYLNRHLHTWIQDNGGWDAFVELYGPSMRA | 23
BCL-2ΔLΔC G101V (domain or fragment, human) MAHAGRTGYDNREIVMKYIHYKLSQRGYEWDAGDDVEENRTEAPEGTESEVVHLTLRQAVDDFSRRYRRDFAEMSSQLHLTPFTARGRFATVVEELFRDGVNWGRIVAFFEFGGVMCVESVNREMSPLVDNIALWMTEYLNRHLHTWIQDNGGWDAFVELYGPSMRA | 5.8
BCL-2ΔLΔC D103Y (domain or fragment, human) MAHAGRTGYDNREIVMKYIHYKLSQRGYEWDAGDDVEENRTEAPEGTESEVVHLTLRQAGDYFSRRYRRDFAEMSSQLHLTPFTARGRFATVVEELFRDGVNWGRIVAFFEFGGVMCVESVNREMSPLVDNIALWMTEYLNRHLHTWIQDNGGWDAFVELYGPSMRA | 21
BCL-2ΔLΔC F104L (domain or fragment, human) MAHAGRTGYDNREIVMKYIHYKLSQRGYEWDAGDDVEENRTEAPEGTESEVVHLTLRQAGDDLSRRYRRDFAEMSSQLHLTPFTARGRFATVVEELFRDGVNWGRIVAFFEFGGVMCVESVNREMSPLVDNIALWMTEYLNRHLHTWIQDNGGWDAFVELYGPSMRA | 1.6

Now from value to binder:

EC90 [nM] | Binder
17 | BCL-2ΔLΔC V156D (domain or fragment, human) MAHAGRTGYDNREIVMKYIHYKLSQRGYEWDAGDDVEENRTEAPEGTESEVVHLTLRQAGDDFSRRYRRDFAEMSSQLHLTPFTARGRFATVVEELFRDGVNWGRIVAFFEFGGDMCVESVNREMSPLVDNIALWMTEYLNRHLHTWIQDNGGWDAFVELYGPSMRA
8.7 | BCL-2ΔLΔC R129L (domain or fragment, human) MAHAGRTGYDNREIVMKYIHYKLSQRGYEWDAGDDVEENRTEAPEGTESEVVHLTLRQAGDDFSRRYRRDFAEMSSQLHLTPFTARGLFATVVEELFRDGVNWGRIVAFFEFGGVMCVESVNREMSPLVDNIALWMTEYLNRHLHTWIQDNGGWDAFVELYGPSMRA
